Experiment: yeast display, Sf9 membrane polyspecificity reagent, FACS + sequencing; frameworks hold sequencing errors
How it was run: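 In a synthetic yeast display library (Saccharomyces cerevisiae BJ5465), nanobody expression was induced with galactose for 36–48 hours. FACS gates were set low and high (top ~1%) using anti-HA fluorescence for expression and streptavidin fluorescence for binding of the Sf9 membrane reagent. Each polyreactivity label is drawn from the gate of origin.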

Sequence	polyreactivity (PSR sort gate)
QFQLVESGGGLVQAGGSLRLSCAASGRIFVRYAMGWYRQAPGKERELVAGITWSGGSTYYADSVKGRFTISRDNSKNTVYLQMNSLKPEDTAVYYCAAERRFYTSYKSKMESCGQGTQVTVSS	high polyreactivity
QFQLVESGGGLVQAGGSLRLSCAASGRIFVYNAMGLYRQAPGKEREFVATITSSGGRTYYADSVKGRFTISRDNAKNTVYLQLNSLKPEDTAVYYWAARPQNNGRNPLYRYNYWGQGTQVTVSS	high polyreactivity
QFQLVESGGGLVQAGGSLRLSCAASGRIIAFYARGWYRQAPGKERELVAAITSGSSTNYADSVKGRFTISRDNAKNTVYLQMNSLKPEDTAVYYCAAEGLRKGDRTDWKLYEYWGQGTQVTVSS	high polyreactivity
QFQLVESGGGLVQAGGSLRLSCAASGRTFGSNVRGWYRQAPGKERELVAAISVSGGSTYYADSVKGRFTISRDNAKNTVYLQMNSLKPDDTAVYYCAADYPTLGYTQNDYWGQGTQVTVSS	low polyreactivity
QFQLVESGGGLVQAGGSLRLSCAASGRTFIVYAMGWYRQAPGKERELVAGITLGSTNYADSVKGRFTISRDNAKNTVYLQMNSLKPEDTAVYYCAARSSRRGPISEGDYWGQGTQVTVSS	high polyreactivity
QFQLVESGGGLVQAGGSLRLSCAASGRTFKKYAMGWYRQAPGKESELVAAITFSGGSTYYADSVKGRFTISRDNANNTVYLQMNSLKPEDTAVYYCAAKRLGGSYGSDYWGQGTQVTVSS	high polyreactivity
QFQLVESGGGLVQAGGSLRLSCAASGRTFKYNAMGWYRQAPGKERELVAAISSTGSTNYADSVKGRFTISRDNAKNTVYLQMNSLKPEDTAVYYSAARGLPSNYYYYVHGYIMYYWGQGTQVTVSS	low polyreactivity
QFQLVESGGGLVQAGGSLRLSCAASGRTFQLNAMGWYRQAPGKERELVAAISTRGGSTNYADSVKGRFTISRDNAKNTVYLQMNRLKPEDTAVYYCAKDPSFTRGFKEGGGYDYWGQGSQVTVSS	high polyreactivity
QFQLVESGGGLVQAGGSLRLSCAASGRTFYAYAMGWYRQAHGKARELVAAIRGRTYYADSVKGRFTISSDNAKNTVYLQMNSLKPEDTAVYYCAARWVPREKLMFYWGQGTQVTVSW	high polyreactivity
QFQLVESGGGLVQAGGSLRLSCAASGRTFYQYTMGWYRQAPGKERELVAAITTSTGNTYYADSVKGRFTISRDNAKNTVYLQLNSLKPEDTAVYYCAAEPPTYKLLDYWGQGTQVTVSS	low polyreactivity
QFQLVESGGGLVQAGGSLRLSCAASGRTSLGYDMRWYRQAPGKERELVAAITRSGGYTYYADSVKGRFTISRDNAKNTVYLQMNSLKPEDTAVYYCAAYWRYSGYYYWGQGTQVTVSS	low polyreactivity
QFQLVESGGGLVQAGGSLRLSCAASGSIFDIYAMGWYRPAPGKERELVADITISGGSTYYADSVKGRFTISRDNAKNTVYLQLNSLIPEDTAVYYCAADVTVVLGYKYDYWGQGTQVTVSS	low polyreactivity
QFQLVESGGGLVQAGGSLRLSCAASGSIFFIYAMGWYRQAPGKERELVATITSGGSTYYADSVKGRFTISRDNAKNTVYLQMNSLKPEDTAVYYCAVDEYFAFDYWGQGTQVTVSS	low polyreactivity
QFQLVESGGGLVQAGGSLRLSCAASGSIFVPYAMGWYRQAPGKERELVAAISSSTASTYYADSVKGRFTISRDNAKNTVYLQMNSLKPEDTAVYYCNAEQWDYGVRVAHYDYWGQGTQVTVSS	low polyreactivity
QFQLVESGGGLVQAGGSLRLSCAASGSIFVYNVMGWYRQAPGKERELVAAITYSGGGTYYADSVKGRFTISRDTAKNTVYLQMNSLKPEDTAVYYCAAAYPSVAYSYRYDYWGQGTQVTVSS	high polyreactivity
QFQLVESGGGLVQAGGSLRLSCAASGSIFYRNAMGWYRQAPGKERELVAAISRRGGSTYYADSVKGRFTISRDNAKNTVYLQMNSLKPEDTAVYYCATDGSTSKLVTVAYDYWGQGTQVTVSS	high polyreactivity

Sequence	polyreactivity (PSR sort gate)
QFQLVESGGGLVQAGGSLRLSCAASGSTFGVYALGWYRQAPGKARELVATINSGGSTNYADSVKRRFTSSRDNAKNTVYLQMTSLTPEDTAVYYCAAGPFWQDFYVYEYDYWGQGTQVTVSS	low polyreactivity
QFQLVESGGGLVQAGGSLRLSCAASGSTFNYNAMGWYRQAPGKERELVAAISSSGGSTYYADSVKGRITISRDNAKNTVYLQMNSLKPEDTAVYSCATGGSSRVRTEGDYWGQGTQVTVSS	low polyreactivity
QFQLVESGGGLVQAGGSLRLSCAASGTFYPYAMGWYRQAPGKERELVAGITGSGGYTYFADSVKGRFTISRDNAKNTVYLQMNSLKPEDTAVYYCAKRSWIEYDYWGQGTQVTVSS	low polyreactivity
QFQLVESGGGLVQAGGSLRLSSAASGFIIRYYAMGWYRQAPGKERELVAAISASGGSTYYADSVKGRFTISRDNAKNTVYLQMNSLKPEDTAVYYCAARYWLREDYWGQGTQVTVSS	high polyreactivity
QFQLVESGGGLVQPGGRLRLICAASGHNFPLNAMGWYRQAPGKERELVAAISRTGGSTYYADSVKGRFTISRDNAKFSVYLQMNSLKPEDTALYFCAKRGQACEDYWGEGTQVTVSS	high polyreactivity
QFQLVESGGGLVQSGGSLRLSCAASGLIFVFYAMGWYRQAPGKERELVAAISTSGDRTYYADSVKGRFTISRDNAKNTVYLQMNSLKPEDTAVYYCAAGRRKVPYSREYYYWGQGTQVTVSS	high polyreactivity
QFQLVESGGVLDQAGGSLRLSCAASGSNFTIYAIGWYRQAPGKERELVADISSGGSTYYADSVKGRFTISRDNAKNTVYLQMNSLNPEDTAVYYCAAGVFFFTFVYWGQGTQVTVSS	low polyreactivity
QFQLVESGGVLVQAGGILRLSCAASGSIFIDNAMGWYRQEPGKERDLVAAITVRGASTNYADSVKGRFTISRDNAKNTVYLQMNSLKPEDTAVYYCNAVGLRSPWHQDYLIRYDYWGQGTQVTVSS	low polyreactivity
QFQLVESGRGLVQAGGSLRLSCAASGSIFYAYAMGWYRKAPGKEREFVAVISYSGGSTYYADSVQGRFTISRDKAKNTVYLQMNSLKPEDTAVYYCAARYRAWSGNYWGQGTQVTVSS	high polyreactivity
QFQLVESLGGLDQAGGSLRLSFAASGLIILAYAMVWYRQAPGKERELVAAISRNRGSTYYADSVKGRLTISRDNAKNTVYLQMNSLKPEVTEVYYCNNVSRSSVYLDYYYWGQGTQVTVSS	high polyreactivity
QFQLVESRGGLVQAGGSLRLSCAASGSIFGSNAMGLYRQAPAKERELVAANSGSGGSTNYADSVKGRLTLSRDIAQNTVYLHMNSLKPEDTAVYYCAVPSKATGSASTSYGIFDSWGQGTQVTVSS	low polyreactivity
QFQLVESVGGLVQAGGSLRLSFAASGFNFDYNAMGWYRQAPGKERELVAAISNTGDSTYYADSVKGRFTISRDNAKNTVYLQMNSLQPEDTAVYYCAADSLFDDYWEYDYWGQGTQVTVSS	low polyreactivity
QFQLVETGGGLVQAGGSLRLSCAASGSILGFNAMRWYIQAPGKESELGAAIRWSGDSTYADSVKGLFTMSRDNAKNTVYLQMNSLTQEDPSFYYCNARDTSYANWLSHFYYWGQGTQVTVSW	low polyreactivity
QFQLVETGGGLVQAGGSLRLSSAASGSTFTLYAMGWYRQAPGKERELVATITGSGGSTNYADSVKGRFTISRDNAKNTVYLQMNSLKPEDTAVYYCAADYAVYSFTEFNYWGQGTQVTVSS	high polyreactivity
QFQRGESGGGLVQAGGSLRLSCAASGRLFYSYAMGGYRQAPGKERELVAAINSGDRTYYADSVKGRFTISRDNAKNTVYLQKNSLNPEDPAVYYCATRWFAFPWDEYNYWGQGSQVTVSS	low polyreactivity

From the nanobody polyreactivity screen of Harvey et al. (2022)
